Measurements as given in doi:10.1101/2022.02.05.479199.

Target: RPA-DBD-D-Cy3;Rtt105-Cy5 (C13S) C13S (Saccharomyces cerevisiae;Saccharomyces cerevisiae?) (UniProt P22336+P26754+P26755+P40063)
Experiment: FRET titration

Sequence of RPA-DBD-D-Cy3;Rtt105-Cy5 (C13S) C13S (Saccharomyces cerevisiae;Saccharomyces cerevisiae?) (P22336 whole entry, chain 1 of 4): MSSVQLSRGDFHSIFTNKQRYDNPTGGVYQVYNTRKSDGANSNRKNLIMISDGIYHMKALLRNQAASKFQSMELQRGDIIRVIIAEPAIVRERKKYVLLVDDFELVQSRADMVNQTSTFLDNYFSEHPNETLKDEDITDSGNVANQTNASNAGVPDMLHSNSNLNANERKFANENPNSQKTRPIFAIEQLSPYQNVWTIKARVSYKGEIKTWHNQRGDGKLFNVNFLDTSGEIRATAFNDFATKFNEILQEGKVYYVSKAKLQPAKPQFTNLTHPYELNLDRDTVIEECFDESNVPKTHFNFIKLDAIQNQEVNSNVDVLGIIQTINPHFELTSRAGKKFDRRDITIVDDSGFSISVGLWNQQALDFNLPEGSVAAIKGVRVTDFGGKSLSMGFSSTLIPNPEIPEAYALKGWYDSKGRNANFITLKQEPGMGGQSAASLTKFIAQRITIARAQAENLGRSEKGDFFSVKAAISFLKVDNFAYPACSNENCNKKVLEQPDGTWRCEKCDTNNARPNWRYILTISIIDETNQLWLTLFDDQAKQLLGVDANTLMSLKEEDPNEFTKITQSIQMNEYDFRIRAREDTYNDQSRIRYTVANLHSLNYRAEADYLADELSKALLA
Sequence of RPA-DBD-D-Cy3;Rtt105-Cy5 (C13S) C13S (Saccharomyces cerevisiae;Saccharomyces cerevisiae?) (P26754 whole entry, chain 2 of 4): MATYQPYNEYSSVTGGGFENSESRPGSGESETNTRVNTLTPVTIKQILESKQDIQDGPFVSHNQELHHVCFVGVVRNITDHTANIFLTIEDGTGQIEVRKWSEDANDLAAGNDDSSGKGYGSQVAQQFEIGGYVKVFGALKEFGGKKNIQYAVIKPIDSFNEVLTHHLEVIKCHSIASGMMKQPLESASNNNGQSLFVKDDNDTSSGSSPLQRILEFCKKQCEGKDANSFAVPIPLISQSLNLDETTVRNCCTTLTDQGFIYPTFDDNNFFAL
Sequence of RPA-DBD-D-Cy3;Rtt105-Cy5 (C13S) C13S (Saccharomyces cerevisiae;Saccharomyces cerevisiae?) (P26755 whole entry, chain 3 of 4): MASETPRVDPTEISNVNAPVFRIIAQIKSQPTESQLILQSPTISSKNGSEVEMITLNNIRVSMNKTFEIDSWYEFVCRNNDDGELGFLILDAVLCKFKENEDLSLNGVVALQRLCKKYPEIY
Sequence of RPA-DBD-D-Cy3;Rtt105-Cy5 (C13S) C13S (Saccharomyces cerevisiae;Saccharomyces cerevisiae?) (P40063 whole entry C13S, chain 4 of 4): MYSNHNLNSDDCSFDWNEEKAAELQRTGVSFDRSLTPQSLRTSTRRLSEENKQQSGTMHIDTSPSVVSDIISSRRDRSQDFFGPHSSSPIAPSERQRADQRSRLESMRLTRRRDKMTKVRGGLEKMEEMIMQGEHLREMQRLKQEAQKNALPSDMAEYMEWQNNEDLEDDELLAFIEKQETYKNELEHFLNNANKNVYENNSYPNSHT

Sequence	K half [nM]
TTTTTTTTTTTTTTTTTTTTTTTTTTTTTTTTTTTTTTTTTTTTTTTTTTTTTTTTTTTTTTTTTTTTTT [(dT)70]	42.8
TTTTTTTTTTTTTTTTTTTTTTTTTTTTTTTTTTT [(dT)35]	130
